Measurements as given in paper PMC10397247.
Each block holds one binder with its values, some of them ahead of it.

How the values were obtained:
[1] = molecular target: T1, Core_IINI-es_KKEK; assay: two-hybrid library CCmax; settings: mean of both orientations;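 also: natural log of median RNA to DNA barcode read ratio; higher means stronger binding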
T1 chain: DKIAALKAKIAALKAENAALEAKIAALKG

[2] = molecular target: T2, 4H3632-bN; assay: two-hybrid library CCNG1;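 also: natural log of median RNA to DNA barcode read ratio; higher means stronger binding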
T2 chain: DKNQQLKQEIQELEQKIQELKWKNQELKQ

[3] = molecular target: T3, 4H1347-bN; assay: two-hybrid library CCNG1;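 also: natural log of median RNA to DNA barcode read ratio; higher means stronger binding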
T3 chain: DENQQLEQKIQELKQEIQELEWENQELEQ

[4] = molecular target: T4, 4H342-bN; assay: two-hybrid library CCNG1;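 also: natural log of median RNA to DNA barcode read ratio; higher means stronger binding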
T4 chain: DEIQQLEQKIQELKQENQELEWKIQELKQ

[5] = molecular target: T5, 4H2619-bN; assay: two-hybrid library CCNG1;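 also: natural log of median RNA to DNA barcode read ratio; higher means stronger binding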
T5 chain: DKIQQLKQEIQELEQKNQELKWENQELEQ

[6] = molecular target: T6, 4H2691-bN; assay: two-hybrid library CCNG1;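 also: natural log of median RNA to DNA barcode read ratio; higher means stronger binding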
T6 chain: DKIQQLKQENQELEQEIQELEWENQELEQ

[7] = molecular target: T7, 4H3070-bN; assay: two-hybrid library CCNG1
T7 chain: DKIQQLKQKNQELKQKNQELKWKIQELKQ

[8] = molecular target: T8, 4H145-bN; assay: two-hybrid library CCNG1
T8 chain: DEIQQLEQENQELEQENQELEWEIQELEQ

[9] = molecular target: T9, 4H496-bN; assay: two-hybrid library CCNG1
T9 chain: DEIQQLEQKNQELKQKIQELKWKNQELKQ

[10] = molecular target: T10, Core_IINI-es_KKEE; assay: two-hybrid library CCmax; settings: mean of both orientations
T10 chain: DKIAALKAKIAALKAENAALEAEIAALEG

[11] = molecular target: T11, P1bHq; assay: two-hybrid library CCNG1
T11 chain: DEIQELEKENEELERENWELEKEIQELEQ

[12] = molecular target: T12, P3bHq; assay: two-hybrid library CCNG1
T12 chain: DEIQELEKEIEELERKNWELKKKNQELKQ

[13] = molecular target: T13, P10bHq; assay: two-hybrid library CCNG1
T13 chain: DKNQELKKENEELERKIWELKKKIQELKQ

[14] = molecular target: T14, P6bHq; assay: two-hybrid library CCNG1
T14 chain: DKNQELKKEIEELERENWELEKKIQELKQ

[15] = molecular target: T15, P9bHq; assay: two-hybrid library CCNG1
T15 chain: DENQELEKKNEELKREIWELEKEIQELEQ

[16] = molecular target: T16, P5bHq; assay: two-hybrid library CCNG1
T16 chain: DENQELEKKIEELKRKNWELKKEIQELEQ

[17] = molecular target: T17, P12bHq; assay: two-hybrid library CCNG1
T17 chain: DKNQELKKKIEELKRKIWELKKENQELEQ

[18] = molecular target: T18, P8bHq; assay: two-hybrid library CCNG1
T18 chain: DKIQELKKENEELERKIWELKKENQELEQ

[19] = molecular target: T19, P4bHq; assay: two-hybrid library CCNG1
T19 chain: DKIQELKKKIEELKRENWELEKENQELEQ

[20] = molecular target: T20, P7bHq; assay: two-hybrid library CCNG1
T20 chain: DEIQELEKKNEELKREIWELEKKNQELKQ

[21] = molecular target: T21, P11bHq; assay: two-hybrid library CCNG1
T21 chain: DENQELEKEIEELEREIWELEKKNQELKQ

[22] = molecular target: T22, P6SHb; assay: two-hybrid library CCNG1
T22 chain: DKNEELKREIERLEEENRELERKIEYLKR

[23] = molecular target: T23, P9SHb; assay: two-hybrid library CCNG1
T23 chain: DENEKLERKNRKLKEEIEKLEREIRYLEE

[24] = molecular target: T24, P3SHb; assay: two-hybrid library CCNG1
T24 chain: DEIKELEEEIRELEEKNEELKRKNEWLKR

[25] = molecular target: T25, P1SHb; assay: two-hybrid library CCNG1
T25 chain: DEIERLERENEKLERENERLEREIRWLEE

[26] = molecular target: T26, P7SHb; assay: two-hybrid library CCNG1
T26 chain: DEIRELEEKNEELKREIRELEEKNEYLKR

[27] = molecular target: T27, P11SHb; assay: two-hybrid library CCNG1
T27 chain: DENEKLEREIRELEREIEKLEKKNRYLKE

[28] = molecular target: T28, P10SHb; assay: two-hybrid library CCNG1
T28 chain: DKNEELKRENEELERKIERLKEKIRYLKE

[29] = molecular target: T29, P5SHb; assay: two-hybrid library CCNG1
T29 chain: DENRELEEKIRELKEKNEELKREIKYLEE

[30] = molecular target: T30, P2SHb; assay: two-hybrid library CCNG1
T30 chain: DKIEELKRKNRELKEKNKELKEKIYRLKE

[31] = molecular target: T31, P8SHb; assay: two-hybrid library CCNG1
T31 chain: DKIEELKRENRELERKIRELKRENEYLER

[32] = molecular target: T32, P4SHb; assay: two-hybrid library CCNG1
T32 chain: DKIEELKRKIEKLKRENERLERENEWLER

[33] = molecular target: T33, P12SHb; assay: two-hybrid library CCNG1
T33 chain: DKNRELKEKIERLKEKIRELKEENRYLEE

[34] = molecular target: T34, O16-bN; assay: two-hybrid library CCNG1
T34 chain: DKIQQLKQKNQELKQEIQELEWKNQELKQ

[35] = molecular target: T35, O10-bN; assay: two-hybrid library CCNG1
T35 chain: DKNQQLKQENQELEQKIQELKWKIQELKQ

[36] = molecular target: T36, O15-bN; assay: two-hybrid library CCNG1
T36 chain: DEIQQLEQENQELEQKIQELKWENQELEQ

[37] = molecular target: T37, O11-bN; assay: two-hybrid library CCNG1
T37 chain: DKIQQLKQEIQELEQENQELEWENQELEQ

[38] = molecular target: T38, O9-bN; assay: two-hybrid library CCNG1
T38 chain: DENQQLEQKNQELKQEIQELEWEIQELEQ

[39] = molecular target: T39, O3-bN; assay: two-hybrid library CCNG1
T39 chain: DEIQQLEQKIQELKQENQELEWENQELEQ

[40] = molecular target: T40, O5-bN; assay: two-hybrid library CCNG1
T40 chain: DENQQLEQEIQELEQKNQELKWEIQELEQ

[41] = molecular target: T41, O8-bN; assay: two-hybrid library CCNG1
T41 chain: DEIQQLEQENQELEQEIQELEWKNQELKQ

[42] = molecular target: T42, O7-bN; assay: two-hybrid library CCNG1
T42 chain: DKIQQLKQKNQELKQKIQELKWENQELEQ

[43] = molecular target: T43, O13-bN; assay: two-hybrid library CCNG1
T43 chain: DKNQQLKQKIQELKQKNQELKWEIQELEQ

[44] = molecular target: T44, O1-bN; assay: two-hybrid library CCNG1
T44 chain: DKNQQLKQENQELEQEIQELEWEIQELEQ

[45] = molecular target: T45, O14-bN; assay: two-hybrid library CCNG1
T45 chain: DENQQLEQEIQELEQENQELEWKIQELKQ

[46] = molecular target: T46, O6-bN; assay: two-hybrid library CCNG1
T46 chain: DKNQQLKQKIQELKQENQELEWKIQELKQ

[47] = molecular target: T47, O2-bN; assay: two-hybrid library CCNG1
T47 chain: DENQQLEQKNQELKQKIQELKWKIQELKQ

[48] = molecular target: T48, O4-bN; assay: two-hybrid library CCNG1
T48 chain: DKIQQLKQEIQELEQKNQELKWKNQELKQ

[49] = molecular target: T49, O12-bN; assay: two-hybrid library CCNG1
T49 chain: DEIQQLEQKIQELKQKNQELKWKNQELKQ

[50] = molecular target: T50, 4H56-bN; assay: two-hybrid library CCNG1
T50 chain: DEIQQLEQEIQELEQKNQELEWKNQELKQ

[51] = molecular target: T51, 4H3364-bN; assay: two-hybrid library CCNG1
T51 chain: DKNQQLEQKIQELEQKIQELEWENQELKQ

[52] = molecular target: T52, P10A-bN; assay: two-hybrid library CCNG1
T52 chain: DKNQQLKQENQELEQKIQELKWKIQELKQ

[53] = molecular target: T53, 4H570-bA; assay: two-hybrid library CCNG1
T53 chain: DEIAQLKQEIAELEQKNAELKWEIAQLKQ

[54] = molecular target: T54, 4H2859-bN; assay: two-hybrid library CCNG1
T54 chain: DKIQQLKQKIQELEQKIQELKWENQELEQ

[55] = molecular target: T55, 4H2760-bN; assay: two-hybrid library CCNG1
T55 chain: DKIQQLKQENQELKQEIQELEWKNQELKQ

[56] = molecular target: T56, 4H349-bN; assay: two-hybrid library CCNG1
T56 chain: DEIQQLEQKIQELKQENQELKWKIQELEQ

[57] = molecular target: T57, 4H3297-bN; assay: two-hybrid library CCNG1
T57 chain: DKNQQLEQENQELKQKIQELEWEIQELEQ

[58] = molecular target: T58, 4H796-bN; assay: two-hybrid library CCNG1
T58 chain: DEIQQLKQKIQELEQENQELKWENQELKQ

[59] = molecular target: T59, 4H3041-bN; assay: two-hybrid library CCNG1
T59 chain: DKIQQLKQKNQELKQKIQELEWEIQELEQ

[60] = molecular target: T60, 4H3381-bN; assay: two-hybrid library CCNG1
T60 chain: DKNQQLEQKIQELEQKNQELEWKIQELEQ

[61] = molecular target: T61, 4H2931-bN; assay: two-hybrid library CCNG1
T61 chain: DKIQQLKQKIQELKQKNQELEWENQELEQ

[62] = molecular target: T62, 4H949-bN; assay: two-hybrid library CCNG1
T62 chain: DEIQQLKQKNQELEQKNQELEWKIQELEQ

[63] = molecular target: T63, 4H932-bN; assay: two-hybrid library CCNG1
T63 chain: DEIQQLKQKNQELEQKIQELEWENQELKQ

[64] = molecular target: T64, 4H264-bN; assay: two-hybrid library CCNG1
T64 chain: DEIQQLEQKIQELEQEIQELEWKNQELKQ

[65] = molecular target: T65, 4H730-bN; assay: two-hybrid library CCNG1
T65 chain: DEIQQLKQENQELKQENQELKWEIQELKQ

[66] = molecular target: T66, Core_NIIN-es_KKEE; assay: two-hybrid library CCmax; settings: mean of both orientations
T66 chain: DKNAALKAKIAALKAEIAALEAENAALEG

[67] = molecular target: T67, Core_NINN-es_KKKE; assay: two-hybrid library CCmax; settings: mean of both orientations
T67 chain: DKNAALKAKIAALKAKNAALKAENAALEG

[68] = molecular target: T68, Core_NNIN-es_KEKE; assay: two-hybrid library CCmax; settings: mean of both orientations
T68 chain: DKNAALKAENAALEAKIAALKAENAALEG

Binder: DENQQLEQKIQELKQEIQELEWENQELEQ [4H1347-bN]
interaction score [2]: 1.6
interaction score [3]: -0.341
interaction score [4]: -0.286
interaction score [5]: -1.17
interaction score [6]: -0.113
interaction score [7]: 0.122
interaction score [8]: -0.341
interaction score [9]: -0.299

Binder: DKNQELKKENEELERKIWELKKKIQELKQ [P10bHq]
interaction score [11]: 1.43
interaction score [12]: -0.901
interaction score [13]: -0.704
interaction score [14]: 1.3
interaction score [15]: 1
interaction score [16]: -0.0841
interaction score [17]: 1.08
interaction score [18]: -0.382
interaction score [19]: 0.266
interaction score [20]: 1.54
interaction score [21]: -1.18

Binder: DKNEELKRENEELERKIERLKEKIRYLKE [P10SHb]
interaction score [22]: 1.07
interaction score [23]: 1.97
interaction score [24]: -1.86
interaction score [25]: -1.44
interaction score [26]: -0.582
interaction score [27]: 1.08
interaction score [28]: 0.734
interaction score [29]: 0.808
interaction score [30]: 0.782
interaction score [31]: -0.0171
interaction score [32]: -0.49
interaction score [33]: -0.4

Binder: DKNQQLKQENQELEQEIQELEWEIQELEQ [O1-bN]
interaction score [34]: -1.9
interaction score [35]: -0.61
interaction score [36]: -1.32
interaction score [37]: -1.2
interaction score [38]: -1.9
interaction score [39]: -2.11
interaction score [40]: -1.54
interaction score [41]: -0.836
interaction score [42]: -1.34
interaction score [43]: -1.14
interaction score [44]: -0.57
interaction score [45]: -1.24
interaction score [46]: -1.45
interaction score [47]: 2
interaction score [48]: -0.922
interaction score [49]: -1.46

Binder: DEIQQLEQKIQELEQEIQELEWKNQELKQ [4H264-bN]
interaction score [50]: 0.479
interaction score [51]: 0.517
interaction score [52]: -2.47
interaction score [53]: -2.9
interaction score [54]: 1.92
interaction score [55]: -0.23
interaction score [56]: 0.605
interaction score [57]: 0.44
interaction score [58]: -0.162
interaction score [59]: 1.54
interaction score [60]: 0.605
interaction score [61]: 1.31
interaction score [62]: -0.338
interaction score [63]: -0.218
interaction score [64]: -0.816
interaction score [65]: 0.137

Now from value to binder:

interaction score [1]: 2.32
Binder: DEIAALEAEIAALEAKNAALKAEIAALEG [Core_IINI-es_EEKE]

interaction score [10]: 2.25
Binder: DEIAALEAEIAALEAKNAALKAKIAALKG [Core_IINI-es_EEKK]

interaction score [66]: 2.03
Binder: DENAALEAEIAALEAKIAALKAKNAALKG [Core_NIIN-es_EEKK]

interaction score [67]: 2.16
Binder: DENAALEAEIAALEAENAALEAKNAALKG [Core_NINN-es_EEEK]

interaction score [68]: 1.67
Binder: DENAALEAKNAALKAEIAALEAKNAALKG [Core_NNIN-es_EKEK]
